From publication doi:10.1101/2025.03.07.642083 come the findings set out here.

In this data set the target is T1, ToAubZL (Aureochrome1 bZIP+LOV) (Thalassiosira oceanica, UniProt K0SY93 276-520).
T1 sequence: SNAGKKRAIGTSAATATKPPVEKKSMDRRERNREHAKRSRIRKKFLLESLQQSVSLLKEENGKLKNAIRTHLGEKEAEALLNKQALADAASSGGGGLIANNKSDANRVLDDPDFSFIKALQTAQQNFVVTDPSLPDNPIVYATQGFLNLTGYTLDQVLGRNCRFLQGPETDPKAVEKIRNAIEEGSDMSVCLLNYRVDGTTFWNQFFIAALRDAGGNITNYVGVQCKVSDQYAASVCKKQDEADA
The data set is described as follows: EMSA.

B1: Aureo-box substrate DNA (dsDNA)
DNA 1: TGTAGCGTCTGACGTGGTTCCCAC
DNA 2: GTGGGAACCACGTCAGACGCTACA
Take B1: the binding result is listed as “binds”.
